Test results taken from article PMC9204233, “Characterization of Catechol-1,2-Dioxygenase (Acdo1p) From Blastobotrys raffinosifermentans and Investigation of Its Role in the Catabolism of Aromatic Compounds” (Frontiers in Microbiology, 2022).
One block for each molecule: values may come before it.

How the values were obtained:
[1] = target: T1, Acdo1-6hp (Acdo1p, catechol-1,2-dioxygenase) (Blastobotrys raffinosifermentans, UniProt A0A060T9I8); assay: spectrophotometric, 2-hydroxymuconic acid formation at […] nm; type: biochemical; settings: 50 mM Tris-HCl pH 7.5, ~20 °C
T1 construct: expressed in B. raffinosifermentans G1212, HisTrap purified

Oc1ccc(O)c(O)c1 = assay: purified protein; settings: pH 7.5, 20 °C
Oc1ccccc1O = assay: purified protein; settings: 50 mM Tris-HCl pH 7.5, ~20 °C
[2] = target: Blastobotrys raffinosifermentans catechol-1,2-dioxygenase with C-terminal 6His-tag (Acdo1-6hp) (Blastobotrys raffinosifermentans LS3); assay: SEC; gel filtration on Superdex 200; 50 mM Tris (pH 8), 0.15 M NaCl; flow 1 mL/min; mass against a calibration curve (blue dextran, ferritin, catalase, bovine albumin, RNAse A, vitamin B12); 'indicative' molecular mass

T1 sequence (A0A060T9I8 1-334 limits assumed): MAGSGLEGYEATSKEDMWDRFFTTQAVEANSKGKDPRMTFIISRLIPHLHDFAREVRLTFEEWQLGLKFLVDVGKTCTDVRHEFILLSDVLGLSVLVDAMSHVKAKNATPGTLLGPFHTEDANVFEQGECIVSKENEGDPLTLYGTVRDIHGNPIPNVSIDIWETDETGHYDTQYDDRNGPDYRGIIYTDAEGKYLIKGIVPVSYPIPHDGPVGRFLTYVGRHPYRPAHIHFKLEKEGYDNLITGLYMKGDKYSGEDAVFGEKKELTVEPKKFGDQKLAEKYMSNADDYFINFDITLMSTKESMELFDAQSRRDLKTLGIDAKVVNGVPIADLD

- Km [1]: 100 ± 20 µM
Molecule: Oc1cccc(O)c1O [pyrogallol]

Molecule: Acdo1-6hp (Acdo1p, catechol-1,2-dioxygenase) (Blastobotrys raffinosifermentans)
- Km (Oc1ccc(O)c(O)c1): 8 ± 2 µM
- kcat (Oc1ccc(O)c(O)c1): 17 ± 3.5 s⁻¹
- kcat/Km (Oc1ccc(O)c(O)c1): 2.13e+06 ± 971000 M⁻¹ s⁻¹
- Km (Oc1ccccc1O): 4 ± 1 µM
- kcat (Oc1ccccc1O): 15.6 ± 0.4 s⁻¹
- kcat/Km (Oc1ccccc1O): 3.95e+06 ± 930000 M⁻¹ s⁻¹

- stoichiometry N [2]: 2
Molecule: Blastobotrys raffinosifermentans catechol-1,2-dioxygenase with C-terminal 6His-tag (Acdo1-6hp) (enzyme)
